In PMC3790011, “Transcription Factor Reb1p Regulates DGK1-encoded Diacylglycerol Kinase and Lipid Metabolism in Saccharomyces cerevisiae*”:

T1: Reb1p (His6-Reb1p) (Saccharomyces cerevisiae RS453, UniProt P21538 1-810)
T1 sequence: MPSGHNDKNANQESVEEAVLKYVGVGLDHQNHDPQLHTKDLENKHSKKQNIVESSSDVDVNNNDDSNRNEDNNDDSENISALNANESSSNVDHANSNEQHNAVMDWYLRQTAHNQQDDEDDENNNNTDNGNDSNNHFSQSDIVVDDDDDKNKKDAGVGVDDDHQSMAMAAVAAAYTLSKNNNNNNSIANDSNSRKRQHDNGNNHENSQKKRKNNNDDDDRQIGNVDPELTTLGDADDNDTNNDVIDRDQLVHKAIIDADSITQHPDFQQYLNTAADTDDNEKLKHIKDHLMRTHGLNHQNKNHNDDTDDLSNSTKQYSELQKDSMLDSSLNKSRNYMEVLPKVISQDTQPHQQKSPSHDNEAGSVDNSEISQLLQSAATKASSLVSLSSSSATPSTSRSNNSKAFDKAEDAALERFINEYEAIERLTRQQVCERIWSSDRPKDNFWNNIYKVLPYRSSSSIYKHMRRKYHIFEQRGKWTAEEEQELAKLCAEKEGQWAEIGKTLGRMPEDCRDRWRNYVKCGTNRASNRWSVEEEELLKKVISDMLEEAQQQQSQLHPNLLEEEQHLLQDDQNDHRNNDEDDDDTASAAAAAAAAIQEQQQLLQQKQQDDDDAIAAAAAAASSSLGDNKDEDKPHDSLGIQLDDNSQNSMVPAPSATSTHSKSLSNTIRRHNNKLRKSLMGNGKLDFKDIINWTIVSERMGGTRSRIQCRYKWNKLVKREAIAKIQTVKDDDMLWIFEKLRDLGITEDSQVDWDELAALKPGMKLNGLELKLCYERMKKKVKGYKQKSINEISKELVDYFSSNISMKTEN

B1: unlabeled DGK1 wild type competitor (dsDNA)
DNA 1: AGGGTCCATAGCGGGTAACAAATTATTGG
DNA 2: CCAATAATTTGTTACCCGCTATGGACCCT
B2: DGK1 promoter Reb1p site wild type (dsDNA)
DNA 1: AGGGTCCATAGCGGGTAACAAATTATTGG
DNA 2: CCAATAATTTGTTACCCGCTATGGACCCT

What was measured:
Reb1p (His6-Reb1p) [1] = target: T1, Reb1p (His6-Reb1p); experiment: competition; 10 mM Mg2+; 0.5 ug Reb1p, 4-16 pmol unlabeled competitor against 4 pmol labeled wild type probe; 10 mM Tris-HCl pH 8.0, 10 mM MgCl2, 50 mM KCl, 1 mM DTT, 0.025 mg/ml poly(dI-dC), 0.2 mg/ml BSA, 0.04% IGEPAL CA-630, 10% glycerol; 15 min, room temperature; 5% PAGE in 0.5x TBE; settings: protein: recombinant; tags: N-terminal His6 (pET-15b); blunt
Reb1p (His6-Reb1p) [2] = target: T1, Reb1p (His6-Reb1p); experiment: EMSA; 10 mM Mg2+; 0.2-1.0 ug Reb1p, 4 pmol probe; 10 mM Tris-HCl pH 8.0, 10 mM MgCl2, 50 mM KCl, 1 mM DTT, 0.025 mg/ml poly(dI-dC), 0.2 mg/ml BSA, 0.04% IGEPAL CA-630, 10% glycerol; 15 min, room temperature; 5% PAGE in 0.5x TBE; settings: protein: recombinant; tags: N-terminal His6 (pET-15b); label: 32P (alpha-32P dTTP, Klenow); blunt

| Binder | binding result (Reb1p (His6-Reb1p) [1]) | binding result (Reb1p (His6-Reb1p) [2]) |
| --- | --- | --- |
| B1 | binds |  |
| B2 |  | binds |
